Data on 69 sequences can be found in the domain aggregation screens of Martell et al. (2025).

The nature of this data set: soluble fraction after stress (log2 fold change); higher = more stays soluble; pooled small domains, quantitative proteomics. As to conditions: stress: pH 4. The gist of the method: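 With high-throughput quantitative proteomics, pooled custom libraries of small protein domains were measured after pH 4 stress. Each domain's soluble amount after the stress gives a fold change taken as aggregation propensity. Higher log2 values mean more of the domain stayed soluble.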
As for “HMRKIKEVLRLKFETGFSHERIAAAVGVSKGAVTKYVQRAVAAGLGWPLAPERDDAALEALLFPH”, the “soluble fraction (log2)” value came to 0.0455.
On to “HMRKLDQRLAGLLLGKGRLVKATHQQLADELGSVREMVSRLLKGFAEHDLVRMSREQIEIVDAAGLRKLAD”, for which the “soluble fraction (log2)” value is -0.611.
Turning to “HMRKPDLTSVRTLIRSVSKLARHLKISPNGIYRWISVNRIPGAHVVKVANYYDVEIRDLVHLTGSD”, the “soluble fraction (log2)” value is -0.578.
Take “HMRLADHVVEKLLALVQDRGLQPGQKLPAERQLAEELGVSRTSVREAIQKLTSQGVLSARRGDGTYLQS”: the “soluble fraction (log2)” value stood at 0.402.
“HMRLARPLTPTEERVLRLLASDMSNAKIGEVLGIRLPTVKSHVSHIMQKLGVTSRAKARTAAQQLGI”: the “soluble fraction (log2)” value was not below 0.43.
Regarding “HMRLDPENFYIRAVTYYRNGDWQRALSQLDEAIKLGTAIEYPALQARIYLEQGMRDEFIAASEK”, the “soluble fraction (log2)” value is -1.42.
In the case of “HMRLDVALRGVLLDGDPTQSRAFVLVSGTTSTYRLGETVQSAELVAINADTITLRTETGLHVIGFDGLI”, the “soluble fraction (log2)” value is -2.11.
Consider “HMRLEYLVDVEEISIKEYLMLLGLSRRLARKIKLYGKMYINHQEAFNYHLVKKGDLLTIEFDE”, for which the “soluble fraction (log2)” value is -2.21.
As for “HMRLIDVFELSPKNRTVLQLYYYEGYSVTEISKILKISVNGVTSRLSRARSKLKLEMEAAENE”, the “soluble fraction (log2)” value was -0.0525.
In the case of “HMRLMLITPTEFDEAAEIADNLKDRRAVLMNVEKTDNETARRLIDFLSGVVYALGGKIMRISAQAYVLT”, the “soluble fraction (log2)” value was -0.228.
For “HMRLPNGYGGVTKLSGRRRKPYMVRKTIGWHIDEKTDKKVQDYVVIGYAATKSEALQMLADYNNNPFDV”, the “soluble fraction (log2)” value is 0.0101.
As for “HMRLSVVDLQDSLRGLEYPAGKGDLINHAREHNASADVIAVLEQFSERTYRSAADVGEEFGRV”, the figure is -0.166.
Take “HMRLTIAQLSEKTGVPERTIRYYIDRGLVPSAHGERRGAWYDTVHLEPLLRIQQWREAGLSLEAIADLLR”: the “soluble fraction (log2)” value was -1.17.
As to “HMRMLLEERLDEIVKIVNERGSISNQELVKMFGASESTIRRDITTLANDNRVIRVHGGAMSVVS”, the “soluble fraction (log2)” value is -0.387.
Turning to “HMRMTLKNKVEDIVHILRKDKQTSLSAILGDNTDRIQTIVVFLAILELVKQHLIKTDQNANFGDINLFPED”, the “soluble fraction (log2)” value is 0.134.
Next, “HMRNLFWTEAQNAQNELNAMRINALTQSIRRIEPNFRGIPSLRDPNRPIPNEEVRDYENYLNRILP”: 0.126; “HMRNMRKLWIARINAAARMNDISYSKLMHGLKLANVEINRKMLSEMAIDDPKSFTALVETAKKALNG”: 0.303; “HMRNPLYAQVADYVMQQIAAGTYRPHQAIPTEWQLAKKLEVSQGTVRKGLDELVFKQILYRQQGVGTFVAD”: 0.0353.
As to “HMRPAAELGLPHAPKHFIQYLTEDDRPQVLKDVDYEGGMGVSIGRLREDSIFDWKFVGLAHNTL”, the “soluble fraction (log2)” value amounted to 0.0686.
Take “HMRPADTAAMLKYLSSGAVKGIGGALAGRIIEAFGDESIKVIEEDPARLATVKGITLKKAKEISEEMQRVN”: the “soluble fraction (log2)” value was 0.0199.
Next, “HMRPEFVVALSGADLGKLHRLYELGEVLSREDDAEGVTHAVLRVPDKHEHAFHAEFPQARPM”: -0.19; “HMRPIDEVFGFFSRPENLTVITPSNLHFNILTPRPLEMKQGAVIDYTIKIFKVPIHWRTLITTYDPPFKFV”: -0.399.
For the sequence “HMRPILTLEEAKAKALAHAGLKADQVTFTEAKLDWDDGKQVYDIEFYTADFKEYDYEIDAKTGEVLEVDY”, the “soluble fraction (log2)” value amounted to 0.0375.
With “HMRPKAIFVDVDDTLVRSVGQTRIPMPAVIAHIRRLHDAGHQLYLWSSGGADYARASAEELGIGQYFQAFL”, the “soluble fraction (log2)” value was -0.32.
Take “HMRPRWTEQEVERAKAIKMIYPNAYRLESSDVFVQVWSKEEILLAHVEVDMFPSLRPGQPVELDEIIG”: the “soluble fraction (log2)” value was -0.114.
With “HMRPTAWDQISDWLDRHGSIANADVVRIAGLDTLKASKLLTTWREQGLLEPLPGRGKRNMAYVRAI”, the “soluble fraction (log2)” value was determined as 0.12.
As to “HMRPTVNETQIREVFRSILGREVDPEGLRHYLGQAAKGWSIDQIRADVNNSQEAHQRRAELARQAEELK”, the “soluble fraction (log2)” value was -0.217.
For the sequence “HMRQDEKTLLYWIAGHLKREGRQITERSARHLVEQVGTDMENLSREMEKLIAYTMGRTEITGQDIDDI”, the “soluble fraction (log2)” value is -1.21.
With “HMRQEIIEDSRKLLEESLKRYDLTYQEFIDTLKSKNMNVESTLINIIKNQSSLDLVLRNLGLIAP”, the “soluble fraction (log2)” value is -0.869.
As for “HMRQISDPTALASMVDKVIEDNPSAVADYRRGESKALGFLIGRVMQSSGGKANPKMIRGLLVKNLES”, the figure is 0.371; as for “HMRQMIIIMQKQAAASSVAAVVEFIRSKGLREHISPGAERTIIGAVGDERVFLPQELESLPQVERAIRVL”, -0.85; as for “HMRQPAAVEYSTFLDWVHASQVERVVFEGDTIRGVRVTGEGFVTYSPETDNTALIGELKKSRVQISATAP”, 0.311.
Consider “HMRQQAFWALVPEERDVLDETGAPLFRIGPTAWALVIEDRGEVFVVRDEDGRVGYLHEVDGVTR”, for which the “soluble fraction (log2)” value is -1.94.
Next, “HMRQQLAEILQKAVDNLPEAQRLVWLLRDKSDMTFKEIAEDLQLTEANVRVLLHRARLKLLAVINQYEE”: -0.115; “HMRQYKEMPYRLFLIHLGKGLVDEVELSDKAKLTGKLKNGKIFITDNPRTENFKEQLLLHDVKVKEG”: -0.133; “HMRQYTPEQLETAVLVLEEVRQGRRLDRALRSHPMPDGRLIAKHVLVAAYRKLVAEGTWKEDPEFLSRIRM”: 0.116.
“HMRRADRLLQLIQILRRHRRPVTGDVMARELEVSLRTVYRDIATLTIEGVPIRGEAGVGYVLGEGY”: the “soluble fraction (log2)” value is 0.211.
Consider “HMRRDEDLAHGRELLEKELRKQGLEVSENLKQDKLLEGAKRLGFLEAEDLVVAVGSGKVSAGMAVGRIIG”, for which the “soluble fraction (log2)” value was -0.411.
As for “HMRREKVLIKLAENLASKVLRTKKSIELEPMTPYERKVIHTTIENISGVKSWSEGENLQRHLIVALDE”, the figure is 0.188; as for “HMRRGPLTPDDFVLDMRVVHPRYGVGRIVALSGSGESRKATVDFGGSIGRMKFVLSQSPLKP”, not below 0.43; as for “HMRRHLLEMNDAIGRLGRLISEDPADRDVAEVIWAALRGMVMGQMIMNEPIDWQRERRTLVEMAIGR”, 0.119.
Consider “HMRRIADVVPEQLTREEAEELLETLAEQGEIHEEQALLARYILEQSLQGVAPEVEPLIRAKLLAGILMVY”, for which the “soluble fraction (log2)” value was -1.67.
Take “HMRRKDIEFTNTMLEELYRHNSKWYDAVVRAYALEIPQKQIAEEMGIRLEAFQSMLFRAKKWIKTKYEADY”: the “soluble fraction (log2)” value was -0.432.
As for “HMRRNLSGEDTIVNRMAQWQYTQEQKNELHKMMDAGMPQEDILSVFYPEIKAEEMHRFLLAFQTAHNSG”, the “soluble fraction (log2)” value is -0.0487.
Next, “HMRRPRGVFNLVPRGFKRFGFITPDGGGEDMFAHLENVRAGHVVEDRNAVEYGIGRGPDGRDQAVDIVPVP”: -0.112; “HMRRPTYPTVTTEAGMVVEDRSSGFVGDIVRWSFEGVTLRDRQQQLRHFTWKPGGFLINGTPVTLKRPE”: 0.0911.
Regarding “HMRRRVIGTLVMGDMSTDFKVLADGHTHRVLAAAISFHKAKPGDEVVILVPKSAPSKWAAVEHVMK”, the “soluble fraction (log2)” value is not below 0.43.
In the case of “HMRSAKLPYSEFLKLVDTDKVNDVSIVGRTISGHLDDGSKFSTYTPPNDPNIIEKLSSHNVIINSAPE”, the “soluble fraction (log2)” value was determined as 0.337.
In the case of “HMRSASFDIMSQKQSDATLGYERVYDTETNEVYKAYNGFTDDYDGERYKSISDNMYTKGISGYIEK”, the “soluble fraction (log2)” value was -0.151.
In the case of “HMRSDSEIKEDVLDELMWQPNIDETQIGVIVEKGVVTLTGFVDAYAKKTAALDAVKNVKGVKAVANDIEV”, the “soluble fraction (log2)” value was -0.0968.
As for “HMRSFGRLRRRDSGRWEAAYVGPDARLYRAPATFEAKDDAIAWLSAERRMIELDTWIKPHDRASR”, the “soluble fraction (log2)” value is -0.000443.
As for “HMRSGFAFSEEEIKHLDNIVSPLLIKGQSIHHISIFHKDEVMMSERTLYSYVNNGLFSARNIDMPRTVRMR”, the figure is 0.218.
“HMRSISVEMDGKEYLIPTVSENGKVLSDDDAVKQFKKTGKHLDVFDSPEDATAYARQLHEDQESFYA”: the “soluble fraction (log2)” value came to 0.22.
On to “HMRSKTDLVYEEIKKLILRGELSSDTPISENHLARRFEISRTPIREALKRLHIEGFVRIIPNHGVFVR”, for which the “soluble fraction (log2)” value was -0.304.
For “HMRSLAVGNVVSEEGKPSYLLLDSKRTMLFSENSIPSLYLEDGRRVIVNYTLLDEDYQGYDFRIHVNDIDT”, the “soluble fraction (log2)” value came to 0.22.
Turning to “HMRSNADALIGRTARVSQTIVENGFGRVALDGDDWKAQAADGSRIEEGQNVIVKDRDSIILTVEKE”, the “soluble fraction (log2)” value came out at 0.256.
In the case of “HMRSNIYTEEKLWTVLQDFFQENRYLTISLMRMKFGLSRHMAQKWIDHFIAKGLLVKDGTPRSPIYFLND”, the “soluble fraction (log2)” value is -0.538.
Take “HMRSNQKVSQIAISQVLPGMVTAKNVYSRNDQLILNRETTLDSTKIAKIMFYAIESIYVYEPE”: the “soluble fraction (log2)” value is -0.6.
Regarding “HMRSPVDALSNRELQVLQMVGRGLSSRQVAEALHLSVKTVEAHRQRIKGKLGLRTGAQLVQFAANWVTG”, the “soluble fraction (log2)” value is -0.182.
Turning to “HMRSREGVRWIIRERIMEELQERHHMDDGELLEMIDRSIGEMGQEIFLPLKERIWLRGSLFDSFR”, the “soluble fraction (log2)” value is -1.44.
In the case of “HMRSWRDQRVDDLLAAVSELGMTMSRAAAGDLLDQRVEYVANQMRVTPATARKYLTEETLAGMAREIVFG”, the “soluble fraction (log2)” value is -0.83.
As for “HMRTAFPQLTERELEILDLIAAGRNNAQIASALYLAPKTVRNNVSNILAKLQATDRAEAIIRARDAGLGG”, the figure is 0.273; as for “HMRTAKEVFYKELKGYMQNGDELSVKKIYSLFPEINPKTVSWRLHELVQHGKIHRTGHGYYALTQ”, 0.0797; as for “HMRTDTIINSGGLKINPEEVENEILKSLGDNNFFIDKIKNDKFGEEIILIALKKIKINLLIESLNLI”, -0.286.
With “HMRTFFEIEQLKAYVGEEIQVKFEADSHKQTVLGKLISISEDFIEIENSKKGNLKISLDNYLTSKLIY”, the “soluble fraction (log2)” value was -0.468.
Turning to “HMRTGSSVLVGLVAPVRLGATGAPKVFADGALWEARSAVPLNDGQLVEITGTDGLTVLVKPSA”, the “soluble fraction (log2)” value came to 0.138.
On to “HMRTIVSELNDIKGISDASAKKLLIRYGSFEAVREAVMKHEEEFELDMGKRITGALTRYFYEE”, for which the “soluble fraction (log2)” value came out at 0.223.
With “HMRTKLEEAVEWLQEQLNDGPVLSKELESEAKAADILPGTLRRAGEALGVVKQKQGGRGGWTWSLPR”, the “soluble fraction (log2)” value was not below 0.43.
As to “HMRTLGADLRALRKARGLTLAGMADNMGKSVGWMSQIERDISEPSISDLRALAKLLDVSVSSLFR”, the “soluble fraction (log2)” value was -0.557.
